Measured values as given in paper PMC6677129.

Biological target: repeat domain (RPT) of Pmel17 (human) (UniProt P40967)
Assay: co-sedimentation

percent of RPT left in the supernatant, 0.1 mM LPG: 54%
percent of RPT left in the supernatant, 0.5 mM LPG: 16%
percent of protein in the supernatant, 0 mM LPG: 108%
percent of protein in the supernatant, 10 mM LPG: 92%
Substance: repeat domain (RPT) of Pmel17 (from UniProt P40967 315-444) (domain or fragment)
